Reference: patent US20250171806A1 (BROAD INSTITUTE, published 2025)

Tests used:
Assay in all cases: co-immunoprecipitation from HEK293 lysate: Flag IP of NS3, HA Western blot
[1] = biological target: T1, HA-tagged Galleria mellonella (Gm) densovirus capsid protein VP1 (Galleria mellonella (Gm) densovirus, UniProt Q90125 1-811)
T1 construct: also called Gm VP1; GmDNV capsid VP protein 1
T1 sequence: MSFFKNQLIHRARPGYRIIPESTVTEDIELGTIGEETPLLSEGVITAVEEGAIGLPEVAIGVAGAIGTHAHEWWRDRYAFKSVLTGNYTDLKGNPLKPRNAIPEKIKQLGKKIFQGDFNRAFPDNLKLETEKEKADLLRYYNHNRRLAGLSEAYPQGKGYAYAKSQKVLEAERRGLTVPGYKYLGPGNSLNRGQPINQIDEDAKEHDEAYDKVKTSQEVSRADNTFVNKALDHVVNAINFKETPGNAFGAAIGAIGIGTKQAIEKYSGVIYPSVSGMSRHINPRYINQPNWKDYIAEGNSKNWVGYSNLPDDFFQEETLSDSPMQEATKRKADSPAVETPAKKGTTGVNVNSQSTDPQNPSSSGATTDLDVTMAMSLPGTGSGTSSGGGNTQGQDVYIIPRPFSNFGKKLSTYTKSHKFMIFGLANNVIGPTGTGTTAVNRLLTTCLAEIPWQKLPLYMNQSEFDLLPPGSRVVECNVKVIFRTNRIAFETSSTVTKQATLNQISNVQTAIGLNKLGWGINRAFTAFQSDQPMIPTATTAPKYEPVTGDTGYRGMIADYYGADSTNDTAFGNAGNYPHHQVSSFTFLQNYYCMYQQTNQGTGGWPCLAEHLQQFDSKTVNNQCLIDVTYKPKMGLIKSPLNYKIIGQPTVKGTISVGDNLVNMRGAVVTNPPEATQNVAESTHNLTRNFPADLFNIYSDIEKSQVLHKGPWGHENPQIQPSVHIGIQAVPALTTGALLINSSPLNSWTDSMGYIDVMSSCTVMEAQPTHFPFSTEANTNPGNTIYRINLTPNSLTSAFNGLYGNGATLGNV

[2] = biological target: T2, HA-tagged Galleria mellonella (Gm) densovirus capsid protein VP2 (Galleria mellonella (Gm) densovirus, UniProt Q90125 277-811)
T2 construct: also called Gm VP2; GmDNV capsid VP protein 2
T2 sequence: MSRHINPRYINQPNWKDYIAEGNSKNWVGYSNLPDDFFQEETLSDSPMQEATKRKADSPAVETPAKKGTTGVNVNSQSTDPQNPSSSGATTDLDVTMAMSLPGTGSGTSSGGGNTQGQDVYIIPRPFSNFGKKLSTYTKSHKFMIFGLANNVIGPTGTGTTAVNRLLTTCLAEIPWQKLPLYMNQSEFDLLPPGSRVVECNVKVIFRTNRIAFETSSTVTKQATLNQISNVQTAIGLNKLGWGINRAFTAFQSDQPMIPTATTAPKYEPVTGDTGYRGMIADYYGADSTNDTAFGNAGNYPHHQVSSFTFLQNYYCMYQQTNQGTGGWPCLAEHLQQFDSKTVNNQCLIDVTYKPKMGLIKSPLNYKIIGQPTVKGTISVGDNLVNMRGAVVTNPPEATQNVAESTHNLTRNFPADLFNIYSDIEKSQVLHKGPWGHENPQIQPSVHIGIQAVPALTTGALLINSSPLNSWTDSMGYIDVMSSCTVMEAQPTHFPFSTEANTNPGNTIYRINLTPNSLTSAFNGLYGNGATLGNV

[3] = biological target: T3, HA-tagged Galleria mellonella (Gm) densovirus capsid protein VP3 (Galleria mellonella (Gm) densovirus, UniProt Q90125 324-811)
T3 construct: also called Gm VP3; GmDNV capsid VP protein 3
T3 sequence: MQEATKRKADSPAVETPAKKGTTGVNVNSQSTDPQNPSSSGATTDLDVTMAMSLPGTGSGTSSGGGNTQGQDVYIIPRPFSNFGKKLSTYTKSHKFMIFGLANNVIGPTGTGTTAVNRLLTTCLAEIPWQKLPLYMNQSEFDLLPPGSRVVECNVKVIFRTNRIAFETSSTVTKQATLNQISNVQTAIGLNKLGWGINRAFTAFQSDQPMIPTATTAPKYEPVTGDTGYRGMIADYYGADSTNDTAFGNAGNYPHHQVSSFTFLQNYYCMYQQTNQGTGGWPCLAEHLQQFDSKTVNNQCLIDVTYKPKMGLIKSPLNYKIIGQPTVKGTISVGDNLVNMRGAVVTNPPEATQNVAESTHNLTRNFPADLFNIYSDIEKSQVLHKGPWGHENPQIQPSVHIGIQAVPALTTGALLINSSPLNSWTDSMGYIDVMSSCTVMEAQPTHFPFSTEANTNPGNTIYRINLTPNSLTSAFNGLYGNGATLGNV

[4] = biological target: T4, HA-tagged Galleria mellonella (Gm) densovirus capsid protein VP4 (Galleria mellonella (Gm) densovirus, UniProt Q90125 375-811)
T4 construct: also called Gm VP4; GmDNV capsid VP protein 4
T4 sequence: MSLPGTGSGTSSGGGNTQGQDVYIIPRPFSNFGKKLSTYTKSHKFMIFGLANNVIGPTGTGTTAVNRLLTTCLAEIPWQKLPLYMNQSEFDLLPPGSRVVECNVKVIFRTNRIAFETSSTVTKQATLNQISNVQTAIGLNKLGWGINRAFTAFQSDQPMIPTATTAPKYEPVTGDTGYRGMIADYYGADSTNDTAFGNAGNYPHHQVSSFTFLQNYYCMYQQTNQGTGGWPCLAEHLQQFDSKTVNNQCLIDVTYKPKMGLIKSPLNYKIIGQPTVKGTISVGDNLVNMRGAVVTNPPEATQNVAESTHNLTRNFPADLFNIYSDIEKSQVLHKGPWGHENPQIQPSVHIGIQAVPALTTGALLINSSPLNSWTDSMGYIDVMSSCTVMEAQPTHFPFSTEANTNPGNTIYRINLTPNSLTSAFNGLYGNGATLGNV

Measured: binding result

B1: Flag-tagged Galleria mellonella (Gm) densovirus nonstructural protein NS3 (other)
chain: MSIAKFLYVRRLFEKVYNPKSLFYEAYKCARLNGLDMSILPKPILNMSHDMDTQIIACGEDINHTLAIEELEHWDWSKQNRLPFQLYLAVMNLTEIPEWLDETMLIECVYYFKELINHRDPYDTDELNTWNANGKPFKTMWKICKFCYNNCEDPDDYRFIYNRTVFVEDVEEIITRLQDSDSWCQLCHTCPLFNISAIYDNSPNNKQRRYSSSDDDDYMSNSFFVKHPNSRH
notes: also called Gm NS3; GmNS3; not shown: Flag tag, at either the N or the C terminus
binds: [1] | [2] | [3] | [4]

B2: Gm NS3 with C-terminal Flag tag (other)
chain: MSIAKFLYVRRLFEKVYNPKSLFYEAYKCARLNGLDMSILPKPILNMSHDMDTQIIACGEDINHTLAIEELEHWDWSKQNRLPFQLYLAVMNLTEIPEWLDETMLIECVYYFKELINHRDPYDTDELNTWNANGKPFKTMWKICKFCYNNCEDPDDYRFIYNRTVFVEDVEEIITRLQDSDSWCQLCHTCPLFNISAIYDNSPNNKQRRYSSSDDDDYMSNSFFVKHPNSRH
notes: also called NS3 when the Flag tag was present on the C-terminus; not shown: C-terminal Flag tag
binds: [1] | [2] | [3] | [4]
